Reference: the supplement of paper PMC9112550, “Optimization of the antimicrobial peptide Bac7 by deep mutational scanning” (BMC Biology, 2022)

What follows are sequences tested on Escherichia coli TOP10 (assay: shrunken log2 fold change of peptide-encoding DNA abundance (4.5 h post-induction vs induction); higher = less antimicrobial activity (less host growth inhibition)). Conditions: time post-induction: 4.5 h; library: site-saturation at positions 5, 18, 19, 20.
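Further: peptides expressed intracellularly from a pBAD plasmid library in pooled LB shake-flask culture, induced with 0.3% L-arabinose, DNA abundance read by NGS, three biological replicates, DESeq2 with apeglm shrinkage.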

Q: RRIRMRPPRLPRPRPRPTNAPRP was tested. Which “shrunken log2 fold change” value did it give?
A: 0.408

Q: For RRIRERPPRLPRPRPRPTLYPRP, which “shrunken log2 fold change” value is on record?
A: -0.184

Q: For RRIRQRPPRLPRPRPRPTTTPRP, which “shrunken log2 fold change” value is on record?
A: -0.126

Q: With RRIRWRPPRLPRPRPRPLNMPRP as the sequence, how does the “shrunken log2 fold change” value read?
A: -0.832

Q: RRIRDRPPRLPRPRPRPDNHPRP was tested. Which “shrunken log2 fold change” value did it give?
A: -0.107

Q: How did the “shrunken log2 fold change” value turn out when RRIRLRPPRLPRPRPRPEDVPRP was run?
A: -0.0818

Q: Which “shrunken log2 fold change” value does the source give for RRIRIRPPRLPRPRPRPAAHPRP here?
A: -0.0526

Q: How did the “shrunken log2 fold change” value turn out when RRIRERPPRLPRPRPRPPVFPRP was run?
A: -0.152

Q: For RRIRVRPPRLPRPRPRPEIDPRP, which “shrunken log2 fold change” value is on record?
A: 0.135

Q: With RRIRFRPPRLPRPRPRPWIPPRP as the sequence, how does the “shrunken log2 fold change” value read?
A: -0.432

Q: For RRIRSRPPRLPRPRPRPWQYPRP, which “shrunken log2 fold change” value is on record?
A: 0.0433

Q: How did the “shrunken log2 fold change” value turn out when RRIRLRPPRLPRPRPRPDIQPRP was run?
A: 0.0103

Q: Which “shrunken log2 fold change” value does the source give for RRIRCRPPRLPRPRPRPKQKPRP here?
A: 0.0322

Q: Which “shrunken log2 fold change” value does the source give for RRIRLRPPRLPRPRPRPTDQPRP here?
A: 0.0347

Q: With RRIRTRPPRLPRPRPRPNFQPRP as the sequence, how does the “shrunken log2 fold change” value read?
A: 0.00569

Q: Which “shrunken log2 fold change” value does the source give for RRIRQRPPRLPRPRPRPYAAPRP here?
A: -0.175

Q: Which “shrunken log2 fold change” value does the source give for RRIRCRPPRLPRPRPRPCDYPRP here?
A: -0.0812

Q: Which “shrunken log2 fold change” value does the source give for RRIRSRPPRLPRPRPRPWPYPRP here?
A: -0.03

Q: How did the “shrunken log2 fold change” value turn out when RRIRGRPPRLPRPRPRPNMTPRP was run?
A: 1.63

Q: Which “shrunken log2 fold change” value does the source give for RRIRTRPPRLPRPRPRPSSDPRP here?
A: 1.82

Q: RRIRIRPPRLPRPRPRPLWSPRP was tested. Which “shrunken log2 fold change” value did it give?
A: -0.245

Q: With RRIRWRPPRLPRPRPRPQAQPRP as the sequence, how does the “shrunken log2 fold change” value read?
A: 0.00496

Q: With RRIRHRPPRLPRPRPRPQMWPRP as the sequence, how does the “shrunken log2 fold change” value read?
A: 2.46e-05

Q: With RRIRDRPPRLPRPRPRPWRIPRP as the sequence, how does the “shrunken log2 fold change” value read?
A: -0.139

Q: RRIRSRPPRLPRPRPRPYANPRP was tested. Which “shrunken log2 fold change” value did it give?
A: -0.185

Q: With RRIRWRPPRLPRPRPRPHPLPRP as the sequence, how does the “shrunken log2 fold change” value read?
A: -0.0381

Q: Which “shrunken log2 fold change” value does the source give for RRIRRRPPRLPRPRPRPCRHPRP here?
A: -0.105

Q: RRIRYRPPRLPRPRPRPLWLPRP was tested. Which “shrunken log2 fold change” value did it give?
A: 0.0113

Q: How did the “shrunken log2 fold change” value turn out when RRIRWRPPRLPRPRPRPQGQPRP was run?
A: 0.203

Q: For RRIRQRPPRLPRPRPRPFRDPRP, which “shrunken log2 fold change” value is on record?
A: -0.117

Q: With RRIRNRPPRLPRPRPRPKVTPRP as the sequence, how does the “shrunken log2 fold change” value read?
A: -0.0149

Q: How did the “shrunken log2 fold change” value turn out when RRIRHRPPRLPRPRPRPMICPRP was run?
A: -0.163

Q: With RRIRRRPPRLPRPRPRPKARPRP as the sequence, how does the “shrunken log2 fold change” value read?
A: 0.277

Q: Which “shrunken log2 fold change” value does the source give for RRIRWRPPRLPRPRPRPEWSPRP here?
A: 0.0628

Q: How did the “shrunken log2 fold change” value turn out when RRIRNRPPRLPRPRPRPKSKPRP was run?
A: 0.0844

Q: How did the “shrunken log2 fold change” value turn out when RRIRCRPPRLPRPRPRPMEIPRP was run?
A: -1.16

Q: Which “shrunken log2 fold change” value does the source give for RRIRHRPPRLPRPRPRPCVSPRP here?
A: -0.311

Q: How did the “shrunken log2 fold change” value turn out when RRIRHRPPRLPRPRPRPPNWPRP was run?
A: 0.494

Q: RRIRMRPPRLPRPRPRPHPAPRP was tested. Which “shrunken log2 fold change” value did it give?
A: 0.903

Q: How did the “shrunken log2 fold change” value turn out when RRIRHRPPRLPRPRPRPWPHPRP was run?
A: -0.0305

Q: RRIRPRPPRLPRPRPRPVQKPRP was tested. Which “shrunken log2 fold change” value did it give?
A: 0.0644

Q: Which “shrunken log2 fold change” value does the source give for RRIRWRPPRLPRPRPRPFCDPRP here?
A: 0.189

Q: With RRIRQRPPRLPRPRPRPDVWPRP as the sequence, how does the “shrunken log2 fold change” value read?
A: -0.0325

Q: Which “shrunken log2 fold change” value does the source give for RRIRFRPPRLPRPRPRPCDAPRP here?
A: -0.312

Q: Which “shrunken log2 fold change” value does the source give for RRIRVRPPRLPRPRPRPIMPPRP here?
A: -0.535

Q: RRIRLRPPRLPRPRPRPCLFPRP was tested. Which “shrunken log2 fold change” value did it give?
A: -0.0955

Q: How did the “shrunken log2 fold change” value turn out when RRIRNRPPRLPRPRPRPPYYPRP was run?
A: -0.575

Q: With RRIRMRPPRLPRPRPRPHVQPRP as the sequence, how does the “shrunken log2 fold change” value read?
A: -0.0996

Q: Which “shrunken log2 fold change” value does the source give for RRIRPRPPRLPRPRPRPDPEPRP here?
A: 0.136

Q: How did the “shrunken log2 fold change” value turn out when RRIRWRPPRLPRPRPRPPNCPRP was run?
A: -0.11

Q: Which “shrunken log2 fold change” value does the source give for RRIRRRPPRLPRPRPRPVRTPRP here?
A: 0.328

Q: RRIRWRPPRLPRPRPRPGFNPRP was tested. Which “shrunken log2 fold change” value did it give?
A: 0.00388

Q: With RRIRMRPPRLPRPRPRPCGSPRP as the sequence, how does the “shrunken log2 fold change” value read?
A: -0.0626

Q: How did the “shrunken log2 fold change” value turn out when RRIRGRPPRLPRPRPRPWEMPRP was run?
A: 0.0928

Q: RRIRKRPPRLPRPRPRPMIQPRP was tested. Which “shrunken log2 fold change” value did it give?
A: 0.195

Q: How did the “shrunken log2 fold change” value turn out when RRIRTRPPRLPRPRPRPTKIPRP was run?
A: -0.169

Q: How did the “shrunken log2 fold change” value turn out when RRIRPRPPRLPRPRPRPVHCPRP was run?
A: 0.046

Q: How did the “shrunken log2 fold change” value turn out when RRIRTRPPRLPRPRPRPILQPRP was run?
A: -0.44

Q: How did the “shrunken log2 fold change” value turn out when RRIRERPPRLPRPRPRPTHPPRP was run?
A: 0.447

Q: RRIRQRPPRLPRPRPRPPDAPRP was tested. Which “shrunken log2 fold change” value did it give?
A: 0.228

Q: For RRIRGRPPRLPRPRPRPFDKPRP, which “shrunken log2 fold change” value is on record?
A: -0.663

Q: With RRIRARPPRLPRPRPRPPYHPRP as the sequence, how does the “shrunken log2 fold change” value read?
A: -0.102

Q: RRIRKRPPRLPRPRPRPPHKPRP was tested. Which “shrunken log2 fold change” value did it give?
A: 0.835

Q: RRIRTRPPRLPRPRPRPGYRPRP was tested. Which “shrunken log2 fold change” value did it give?
A: -0.0981

Q: Which “shrunken log2 fold change” value does the source give for RRIRVRPPRLPRPRPRPEPFPRP here?
A: 0.0811

Q: How did the “shrunken log2 fold change” value turn out when RRIRARPPRLPRPRPRPGWEPRP was run?
A: 0.274

Q: Which “shrunken log2 fold change” value does the source give for RRIRRRPPRLPRPRPRPDGAPRP here?
A: 0.766

Q: With RRIRDRPPRLPRPRPRPHYPPRP as the sequence, how does the “shrunken log2 fold change” value read?
A: -0.265

Q: Which “shrunken log2 fold change” value does the source give for RRIRPRPPRLPRPRPRPTMKPRP here?
A: -0.179

Q: For RRIRPRPPRLPRPRPRPVIVPRP, which “shrunken log2 fold change” value is on record?
A: -0.212

Q: For RRIRRRPPRLPRPRPRPVEIPRP, which “shrunken log2 fold change” value is on record?
A: 0.048

Q: With RRIRIRPPRLPRPRPRPYFKPRP as the sequence, how does the “shrunken log2 fold change” value read?
A: -0.511

Q: Which “shrunken log2 fold change” value does the source give for RRIRARPPRLPRPRPRPYVLPRP here?
A: -0.347

Q: For RRIRPRPPRLPRPRPRPHICPRP, which “shrunken log2 fold change” value is on record?
A: -0.0442

Q: How did the “shrunken log2 fold change” value turn out when RRIRCRPPRLPRPRPRPYMMPRP was run?
A: -0.293
